Data: patent US20110212110A1 (INNATE PHARMA, published 2011)

How the values were obtained:
[1] = molecular target: T1, recombinant human His-tagged TLR3 extracellular domain protein (R&D systems, #1487-TR-050) (human, UniProt O15455 24-704); assay: ELISA, His-tagged TLR3 or TLR4 on Ni-NTA plates, hybridoma supernatant, goat anti-mouse F(ab) IgG-HRP
T1 construct: Bought protein; also called recombinant human TLR3; rec TLR3; not shown: His tag
Excerpt: Immune spleen cells were fused with X63.Ag8.653 immortalized B cells, and cultured in the presence of irradiated spleen cells. 40 culture plates were obtained and evaluated in a first screen for TLR3 binding using an ELISA developed for detection of binding to TLR3. Briefly, His-tagged recombinant TLR3 protein (R&D systems, #1487-TR-050) was coated on Ni-NTA 96-wells plates (Qiagen). […] Positive supernatants were selected and tested for lack of binding to TLR4. Briefly, His-tagged rec TLR4 protein (R&D systems, #3146-TR-050) were coated on Ni-NTA 96-wells plates (Qiagen). […] TLR4 was chosen as a 2nd screen in order to discriminate among wells selected in the 1st screen, where anti-His specific antibody from TLR3 specific antibody were used.
Cloning of hybridomas of potential interest. 42 potentially interesting hybridomas selected from the initial screening were cloned by limiting dilution techniques in 96-wells plates, and 304 subclones were tested in a series of screens as follows. […] All supernatants yielding a ratio above 10 for DO obtained in TLR3 ELISA to DO obtained in TLR4 ELISA were selected as specific for TLR3. Among them was supernatant from well F9 of plate 40 (40F9).

[2] = molecular target: T2, human TLR4 expressed in 293T cells (293T-TLR4 transfectants) (human, UniProt O00206 24-839); assay: IHC on paraffin-embedded cell pellet, ENVISION amplification
T2 construct: also called Toll-Like Receptor 4
Protocol: 40F9.6 was tested on tonsil tissue with different detection systems, in order to identify the detection system yielding the strongest signal, with the lowest […]. The ENVISION System commercialized by DAKO A/S (Glostrup, Denmark) was selected. ENVISION is an amplification system based on an HRP-labeled polymer conjugated to secondary antibodies. Tissue sections were dewaxed and rehydrated before the antigen unmasking procedure in boiled citrate buffer (pH6). Endogenous peroxydases were blocked by a 3% solution of H₂O₂.
40F9.6 was tested in a series of paraffin-embedded samples.

B1: monoclonal antibody 40F9 (clone 40F9.6) (antibody, mouse IgG1, V domains shown)
VH: QIQLVQSGPELKKPGETVKISCKASGYTFTNYGMNWVKQAPGKGLKWMGWINANTGEPTYAEEFKGRFAFSLETSDSTAYLQINNLKNEDTATYFCASDYDYWGQGTTLTVSS
VL: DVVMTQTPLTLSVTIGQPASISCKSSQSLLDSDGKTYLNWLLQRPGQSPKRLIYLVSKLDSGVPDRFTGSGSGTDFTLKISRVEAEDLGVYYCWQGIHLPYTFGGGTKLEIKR
notes: Mouse hybridoma antibody (Balb/c); also called supernatant from well F9 of plate 40
ratio of DO obtained in TLR3 ELISA to DO obtained in TLR4 ELISA [1]: 10
binding result [2]: no binding (tested: 10 µg/ml)
